{
  "source": "patent US9133449B2",
  "about": "“Mutant pyrrolysyl-tRNA synthetase, and method for production of protein having non-natural amino acid integrated therein by using the same” (priority 2007, dated 2015)",
  "molecules": {"B1": {"name": "PylRS(c270) mutant (Y306A) (protein, UniProt Q8PWY1 185-454, looked up, variant Y306A)", "chain": "ASAPALTKSQTDRLEVLLNPKDEISLNSGKPFRELESELLSRRKKDLQQIYAEERENYLGKLEREITRFFVDRGFLEIKSPILIPLEYIERMGIDNDTELSKQIFRVDKNFCLRPMLAPNLANYLRKLDRALPDPIKIFEIGPCYRKESDGKEHLEEFTMLNFCQMGSGCTRENLESIITDFLNHLGIDFKIVGDSCMVYGDTLDVMHGDLELSSAVVGPIPLDREWGIDKPWIGAGFGLERLLKVKHDFKNIKRAARSESYYNGISTNL"}, "B2": {"name": "PylRS(c270): M. mazei PylRS of which the 184 amino acids from the N terminus were truncated (protein, UniProt Q8PWY1 185-454, looked up, fragment)", "chain": "B1 chain with A122Y"}, "B3": {"name": "PylRS mutant (Y384F) (protein, UniProt Q8PWY1 1-454, looked up, variant Y384F)", "Pyrrolysine--tRNA ligase": "MDKKPLNTLISATGLWMSRTGTIHKIKHHEVSRSKIYIEMACGDHLVVNNSRSSRTARALRHHKYRKTCKRCRVSDEDLNKFLTKANEDQTSVKVKVVSAPTRTKKAMPKSVARAPKPLENTEAAQAQPSGSKFSPAIPVSTQESVSVPASVSTSISSISTGATASALVKGNTNPITSMSAPVQASAPALTKSQTDRLEVLLNPKDEISLNSGKPFRELESELLSRRKKDLQQIYAEERENYLGKLEREITRFFVDRGFLEIKSPILIPLEYIERMGIDNDTELSKQIFRVDKNFCLRPMLAPNLYNYLRKLDRALPDPIKIFEIGPCYRKESDGKEHLEEFTMLNFCQMGSGCTRENLESIITDFLNHLGIDFKIVGDSCMVFGDTLDVMHGDLELSSAVVGPIPLDREWGIDKPWIGAGFGLERLLKVKHDFKNIKRAARSESYYNGISTNL"}},
  "key": {"tRNA^Pyl": {"system": "tRNA^Pyl", "assay": "Aminoacylation assay of PylRS mutants / PylRS(c270)", "format": "biochemical, Methanosarcina mazei", "description": "The full length PylRS mutant was overexpressed in E. coli cells, and then purified using HisTrap column (Amersham Biosciences Inc.). Aminoacylation reaction was performed at ca. 37 degrees Celsius for 1 h. The reaction solution for aminoacylation comprises 2.83 μM of purified PylRS derived from M. mazei (or 9 μM of PylRS (c270)), 10 mM of MgCl2, 2 mM of ATP, 4 mM of DTT, 2.11 μM of transcript of M. mazei-derived tRNA^Pyl, and adequate amount of concentrated solution of a variety of amino acids dissolved in 100 mM of HEPES buffer (pH 7.2). Acid-urea polyacrylamide gel electrophoresis was used to analyze whether tRNA had been aminoacylated or not."}, "[1]": {"system": "amber stop codon in the chloramphenicol acetyltransferase (CAT) gene, E. coli DH10B cells", "assay": "Positive selection by suppression of amber stop codon in CAT gene (chloramphenicol resistance)", "format": "cell-based", "description": "The PylRS mutant library was first subjected to a positive selection based on suppression of an amber stop codon located at a nonessential position in the chloramphenicol acetyltransferase (CAT) gene. […] Then the surviving cells were grown in the presence of chloramphenicol and the absence of Boc-Lys."}},
  "note": "Residue numbers refer to the chain shown, from its start. Names may count otherwise.",
  "data": [
    {"molecule": "B1", "values": [
      {"measurement": "esterification of tRNA^Pyl with Z-Lys", "setting": "tRNA^Pyl; substrate Z-Lys, compared with wild-type PylRS", "value": "much more efficiently than the wild-type PylRS"}
    ]},
    {"molecule": "B2", "values": [
      {"measurement": "aminoacylation activity with pyrrolysine", "setting": "tRNA^Pyl; substrate pyrrolysine", "value": "may esterify"}
    ]},
    {"molecule": "B3", "values": [
      {"measurement": "concentration of chloramphenicol at which cells survived", "setting": "[1]; in the absence of Boc-Lys", "value": "less than 25 μg/ml"},
      {"measurement": "concentration of chloramphenicol at which cells survived", "setting": "[1]; in the presence of Boc-Lys (1 mM)", "value": 150, "unit": "µg/mL"}
    ]}
  ]
}
